T1: IL-18 receptor (IL-18Rα and IL-18Rβ) (UniProt Q13478 19-541; O95256 20-599, limits assumed)
T1 sequence (looked up) 1: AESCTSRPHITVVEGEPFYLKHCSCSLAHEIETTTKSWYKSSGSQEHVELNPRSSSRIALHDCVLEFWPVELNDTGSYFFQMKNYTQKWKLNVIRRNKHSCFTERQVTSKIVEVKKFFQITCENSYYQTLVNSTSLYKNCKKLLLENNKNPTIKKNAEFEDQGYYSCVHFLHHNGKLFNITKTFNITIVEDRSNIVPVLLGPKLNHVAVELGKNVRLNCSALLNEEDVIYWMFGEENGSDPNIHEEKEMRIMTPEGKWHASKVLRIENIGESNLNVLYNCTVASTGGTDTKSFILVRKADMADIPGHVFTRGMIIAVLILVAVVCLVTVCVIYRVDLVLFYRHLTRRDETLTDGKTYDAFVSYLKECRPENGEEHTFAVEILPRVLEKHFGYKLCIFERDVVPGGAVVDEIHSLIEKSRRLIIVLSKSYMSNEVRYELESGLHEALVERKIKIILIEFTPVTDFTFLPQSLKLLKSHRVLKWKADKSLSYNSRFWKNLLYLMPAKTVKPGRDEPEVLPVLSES
T1 sequence (looked up) 2: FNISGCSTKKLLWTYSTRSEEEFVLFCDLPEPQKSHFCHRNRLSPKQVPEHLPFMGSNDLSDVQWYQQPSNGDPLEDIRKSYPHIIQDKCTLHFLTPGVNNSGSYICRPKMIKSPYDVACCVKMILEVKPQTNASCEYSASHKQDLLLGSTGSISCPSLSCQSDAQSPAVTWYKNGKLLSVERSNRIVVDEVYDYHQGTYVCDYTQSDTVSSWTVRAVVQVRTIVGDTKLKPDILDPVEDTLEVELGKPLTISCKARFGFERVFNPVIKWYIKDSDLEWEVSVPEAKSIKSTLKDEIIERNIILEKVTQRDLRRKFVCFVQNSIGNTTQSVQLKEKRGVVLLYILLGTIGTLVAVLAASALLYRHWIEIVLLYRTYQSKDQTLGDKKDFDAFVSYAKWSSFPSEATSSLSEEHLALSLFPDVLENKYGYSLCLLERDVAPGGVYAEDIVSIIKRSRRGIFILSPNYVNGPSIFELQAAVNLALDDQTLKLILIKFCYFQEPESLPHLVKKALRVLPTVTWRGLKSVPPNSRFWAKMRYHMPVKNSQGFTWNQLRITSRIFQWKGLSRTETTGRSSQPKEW

T2: interleukin 18 binding protein (IL-18BP) (UniProt O95998 31-194)
T2 sequence (looked up): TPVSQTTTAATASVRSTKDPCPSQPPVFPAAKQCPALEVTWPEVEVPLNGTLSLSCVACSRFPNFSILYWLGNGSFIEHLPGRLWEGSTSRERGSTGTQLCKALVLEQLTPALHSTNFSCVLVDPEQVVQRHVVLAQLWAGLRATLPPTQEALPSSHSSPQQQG


Tests used:
Assay in all cases: cell-based or functional assay
[1] = target: T1, IL-18 receptor (IL-18Rα and IL-18Rβ)
[2] = target: T1, IL-18 receptor (IL-18Rα and IL-18Rβ); remark: listed apart in the source
[3] = target: T2, interleukin 18 binding protein (IL-18BP)

Row | Binder | EC50 (pM), PBMC IFN gamma assay, average [1] [pM] | EC50 (pM), PBMC IFN gamma assay, run 1 [1] [pM] | EC50 (pM), PBMC IFN gamma assay, run 2 [1] [pM] | EC50 (pM), PBMC IFN gamma assay, run 3 [1] [pM] | PBMC IFN gamma EC50 relative to WT-IL18, average [1] | PBMC IFN gamma EC50 relative to WT-IL18, run 1 [1] | PBMC IFN gamma EC50 relative to WT-IL18, run 2 [1] | PBMC IFN gamma EC50 relative to WT-IL18, run 3 [1] | EC50 (pM) - BP, HEK-blue re-screening [2] [pM] | EC50 (pM) + 100 nM BP, HEK-blue re-screening [3] [pM] | Ratio (HEK-blue EC50, + 100 nM BP against - BP) [3]
1 | hIL18 (G3V, K53S, M60K) - KiH (Fc fusion) YFVKLESKLSVIRNLNDQVLFIDQGNRPLFEDMTDSDMRDNAPRTIFIISMYSDSQPRGKAVTISVKSEKISTLSSENKIISFKEMNPPDNIKDTKSDIIFFQRSVPGHDNKMQFESSSYEGYFLASEKERDLFKLILKKEDELGDRSIMFTVQNED | 576 | 589 | 535 | 603 | 3.75 | 2.45 | 5.08 | 3.73 | – | – | –
2 | IL-18 variant E6G, D54A, S55K, T63S, N91K, Q114R (ligand) YFGKLGSKLSVIRNLNDQVLFIDQGNRPLFEDMTDSDMRDNAPRTIFIISMYKAKQPRGMAVSISVKSEKISTLSSENKIISFKEMNPPDKIKDTKSDIIFFQRSVPGHDNKMRFESSSYEGYFLASEKERDLFKLILKKEDELGDRSIMFTVQNED | – | – | – | – | – | – | – | – | 0.1 | 2.17 | 21.7
3 | hIL18 (G3T, K53S, M60K) - KiH (Fc fusion) YFTKLESKLSVIRNLNDQVLFIDQGNRPLFEDMTDSDMRDNAPRTIFIISMYSDSQPRGKAVTISVKSEKISTLSSENKIISFKEMNPPDNIKDTKSDIIFFQRSVPGHDNKMQFESSSYEGYFLASEKERDLFKLILKKEDELGDRSIMFTVQNED | 906 | 810 | 1120 | 784 | 6.3 | 3.36 | 10.7 | 4.85 | – | – | –
4 | IL-18 variant G3E, E6G, N91M, R104A (ligand) YFEKLGSKLSVIRNLNDQVLFIDQGNRPLFEDMTDSDMRDNAPRTIFIISMYKDSQPRGMAVTISVKSEKISTLSSENKIISFKEMNPPDMIKDTKSDIIFFQASVPGHDNKMQFESSSYEGYFLASEKERDLFKLILKKEDELGDRSIMFTVQNED | – | – | – | – | – | – | – | – | 0.17 | 3.49 | 20.5
5 | IL-18 variant G3Y, E6N, N91Y, R104S (ligand) YFYKLNSKLSVIRNLNDQVLFIDQGNRPLFEDMTDSDMRDNAPRTIFIISMYKDSQPRGMAVTISVKSEKISTLSSENKIISFKEMNPPDYIKDTKSDIIFFQSSVPGHDNKMQFESSSYEGYFLASEKERDLFKLILKKEDELGDRSIMFTVQNED | – | – | – | – | – | – | – | – | 0.09 | 2.89 | 32.1
6 | IL-18 variant G3Q, E6K, D54S, S55P, T63S, N91S, R104Q (ligand) YFQKLKSKLSVIRNLNDQVLFIDQGNRPLFEDMTDSDMRDNAPRTIFIISMYKSPQPRGMAVSISVKSEKISTLSSENKIISFKEMNPPDSIKDTKSDIIFFQQSVPGHDNKMQFESSSYEGYFLASEKERDLFKLILKKEDELGDRSIMFTVQNED | – | – | – | – | – | – | – | – | 0.27 | 7.45 | 27.6
7 | IL-18 variant G3I, E6Q, N91M, R104Y (ligand) YFIKLQSKLSVIRNLNDQVLFIDQGNRPLFEDMTDSDMRDNAPRTIFIISMYKDSQPRGMAVTISVKSEKISTLSSENKIISFKEMNPPDMIKDTKSDIIFFQYSVPGHDNKMQFESSSYEGYFLASEKERDLFKLILKKEDELGDRSIMFTVQNED | – | – | – | – | – | – | – | – | 0.07 | 3.77 | 53.9

From patent US20240182536A1 (MURAL ONCOLOGY, published 2024)
